Laboratory results as given in publication PMC6709672 (Nature, 2019).
Where two headings read alike, the source gives them in different places.

Legend:
[1] = target: T1, mouse Smoothened (SMO) residues 64-566, crystallization construct (Mus musculus, UniProt P56726); experiment: SPR
[2] = target: T1, mouse Smoothened (SMO) residues 64-566, …; experiment: SPR; remark: listed apart in the source

T1 sequence (P56726 64-566): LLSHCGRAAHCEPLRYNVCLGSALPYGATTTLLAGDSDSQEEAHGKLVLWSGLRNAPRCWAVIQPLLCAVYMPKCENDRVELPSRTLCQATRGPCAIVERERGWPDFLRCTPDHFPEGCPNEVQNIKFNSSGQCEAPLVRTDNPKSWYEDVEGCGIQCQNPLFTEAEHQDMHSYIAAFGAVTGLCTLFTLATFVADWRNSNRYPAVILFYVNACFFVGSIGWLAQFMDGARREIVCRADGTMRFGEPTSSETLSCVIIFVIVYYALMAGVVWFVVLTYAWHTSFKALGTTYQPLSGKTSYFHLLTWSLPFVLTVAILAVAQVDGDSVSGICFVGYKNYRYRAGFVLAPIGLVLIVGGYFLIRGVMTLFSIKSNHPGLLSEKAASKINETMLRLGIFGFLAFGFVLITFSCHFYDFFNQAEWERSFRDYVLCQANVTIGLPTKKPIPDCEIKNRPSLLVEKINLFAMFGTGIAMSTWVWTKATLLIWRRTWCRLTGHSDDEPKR

Kd [1]: 117 nM | Kd [2]: 168 nM
B1: NbSmo8 with a C-terminal hexahistidine tag (VHH)
VHH: QVQLQESGGGLVQAGGSLRLSCAASGYIFSSYAMGWYRQAPGKEREFVATIGWGTITYYADSVKGRFTISRDNAKNTVYLQMNSLKPEDTAVYYCAAQDLLYYSFPGDHAYWGQGTQVTVSS
